According to paper PMC10580930:

Columns and labels:
[1] = test system: C[C@@H](O)[C@H]1C(=O)N2C(C(=O)O)=C(S[C@@H]3CN[C@H](C(=O)N(C)C)C3)[C@H](C)[C@H]12; test: purified protein; conditions: phosphate-buffered solution (1x), 50 µM ZnSO4, room temperature
[2] = test system: C[C@@H](O)[C@H]1C(=O)N2C(C(=O)O)=C(SCCN=CN)C[C@H]12; test: purified protein; conditions: phosphate-buffered solution (1x), 50 µM ZnSO4, room temperature

Question: VIM-2 (Pseudomonas aeruginosa) was tested. Which Km [1] did it give?
Answer: The Km was 5.37 µM.

Question: And the kcat [1]?
Answer: Its kcat is 2.1 s⁻¹.

Question: What about the kcat/Km [1] of the same substance?
Answer: The kcat/Km was 400000 M⁻¹ s⁻¹.

Question: And the Km [2]?
Answer: Its Km is 10.31 µM.

Question: What about the kcat [2] of the same substance?
Answer: Its kcat is 11.1 s⁻¹.

Question: What about the kcat/Km [2] of the same substance?
Answer: The kcat/Km was 1.1e+06 M⁻¹ s⁻¹.
